Experimental data: a protein production outcome set (Wang et al. 2014)

assay: label from the status in PepcDB records
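Further: failed if final PepcDB status was selected cloned or expressed and not failed if soluble or beyond.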

Q: For “MKYLYQQLLAFIGVIALIILIVGTSFTQLTKRTMQENNYEQLYGYAESALETRDFFINVAGVSDRDVLSYSFQLTERVLQKQDVQFVFINKDREVQYPPVDSTKKLDFSLIDKNWDQIMKGNRVYATENIDIYGARNTSSYVMLPVYASNQSSDKKVIIGSLVITQPAKNVDRSVQSVTQNLIKGFIFSGVIALLLSYLFATFQVKRINRMRKATKEITSGNFDIQLPVHDKDEFDDLAEDFNKMAASLKESQEEINRQEERRRQFMADASHEMRTPLTTINGLLEGLQYNAIPENQKENAIKLMQNETARLIRLVNENLDYEKIRTNQIQIVVKKFNGTEALENIVTQLTAKAEAAGNQLYLDTTEPIDVYADYDRFVQVVVNIVQNAIQFTENGEIHIALEKGYLETIVRISDTGIGMTEEQILNIWDRYYKVDPSRKNTKYGESGLGLPIVQQLVRLHKGKINVESELGKGTTFIISFPDVEITEN”, which protein production is on record?
A: The protein production was “not failed”.

Q: Which protein production does the source give for “MKYSTRADIQDYLKQGYQLVSDNFVTGTTFDTDDRTDQIYEVHFKHGIESDFEKRNVKETVHYRYDNGQLARPIYQNVLNFERKVETDQVTKQRNYKNWQAVDGTSFKRVVSPYIKGYTAVPKLIDEITNINENHKNIEKIVVYKANDEKAQVKYFDDTTGRKLSEQFLHGAYGSRDVYRTANTIQHYKQMGYELVSDDYPKNGAKYSQDKLVRVYEIHLKHKIIEQSEKSTVKEVIHYLYDNGHLAKPVYESVLNFSRMVGIDQVTGKKYYGIWQATEGTSFKKVVSPKIEGYTALPKVVVAINNINVNHANIEKIVVYKANDEKARVKYFDDTIGRKLSEQLLHGVYGSRDVYRTANTIQRYKQMGYELVSDNYPKNGANYSQDKLVRVYEIHLKHKIVKQPEKSTVKEVIHYLYDNGQPAGPIYENELDFKRIIEFDQVTKQKRYGNWQAIDGTYFKKVDSPKIIGYTPTLEAIETINNIDGSHKDIEETVVYKINDEKAQVTYYDDTTRKKLSEKGLNGAYRTRDSYRTVDAINQYKWAGYELVSDDYPQNGVFYDQDKLIKMYEVHLKHGEKMDFEQRAVKEVIYYQYDDGQLAEPTYKNKLSFRRIVKIDQVTGQKYYGVWQAVDGTNFRSVVSPIIEGYTPIPEIVRAINNINSYHQDVEKTVVYQANKQNEVVGGNSPKKFKQIKIILVRVIHPNREVRINTEKSHTKK” here?
A: The protein production was “failed”.

Q: Which protein production does the source give for “MKYVPSFKSLKETENGWELQVSWMITVTLRVTMQKSRDEITYLIKKTEGLVKINSYLRFIILPTRDRTVVRLTFFYKGPFERVAKRQTEEFYRRGVEIFKRDLESVQVERKEERGAPSNAKLLLNMRTLLSTQIGKDQLDEVLEQAMLWSVNSQVFVLISDGSRRVELRFRNGDLESGGDLSSLGDKITVIVKGDRAD” here?
A: Its protein production is “failed”.

Q: Which protein production does the source give for “MLADELTIGPIRAVPMDITPKYVGIASGLMNAGSAVADIISPIAFGIIIDKTGNWSLPFYGSVALLVIGIFLTFFMRPDKSL” here?
A: The protein production was “failed”.

Q: Which protein production does the source give for “MLADHARALDALRSALTPLKAELVAAELESIPVSRLKDVTEGRLRLGAVEAAGFTSVRGVYEAGRYELRQLPGVGEQTADRALAAARQIARAVAETVSVRLDVDHPEPRTTALVVALHRLVEAGPELRRALDAATRLDERLGALLPAARPAGGRLRLALAGRHRREDALAAAAETRDLVAEATARDVPLLLAQASTDLLRDPASDIEAWVDFELRSAEYYSQLAEVSEHRPDAEAGEGFLPSGVAERVHAQPLDDTHRRVSLRGYQSFGARFALAQRRVVLGDEMGLGKTVQAIAALAHLAAEGHSHFLVVCPASVLINWTREIRARSTLRALPVHGADRRDAYEEWRERGGVAVTTFDVLHSLPVPDTEKPGMLVVDEAHYVKNPDTRRAKAVTGWTAHCDRVLFLTGTPMENRVEEFRALVRHLQPALLPAVQGGGVAAGPHAFRKSVAPAYLRRNQQDVLTELPALVQVDEWEELSAADRDAYRKAVAEGNFMAMRRAAYADAEKSAKLGRLRELVAEAADNGLKVVVFSYFREVLATVQQCLGEPVLGPISGGVPAARRQRLVDAFAAIDGHAVLLAQIEAGGTGLNLQAASVVILCEPQVKPTMEHQAVARAHRMGQIRTVQVHRLLATDSVDDRLLRILKNKDRLFDAYARRSDIAEATPDAVDVSDASLARRIVEEEQQRLAARPADQPARTTS” here?
A: Its protein production is “failed”.

Q: Which protein production does the source give for “MLADPAQPEHVFIVEDSRGATELKLYKSHYTIGKADSCDIRLHSIYASRQHATLVRFLTENGEVRYRLIDGDPETSRRSANGTYVNNRSITECDLKHYDQILFGADVKATYFYLSPQFRSLEHHHHHH” here?
A: Its protein production is “failed”.

Q: With “MLAFFIFLSTLVLLFWRPWNLPIWVFSSLGAFFVFIFQLVDFKDACFVFSLVWDSSLTLVGLIILSFSLEALGFFDFIASKILYFSREKNQEKIYISTKKMMLFLLIFVFFLSAFFANDGAILIITPIIIALFSTLKDCKNHAFILSSFLLSLSFLCDASSNALVISNLTNIITANYFKIEFLEFAKNMFLPNFFVLLSTIVTVFVLYVRVLPKRLEFKLIKKEQISLKLFFLCIVFLFLFVISFFIGEIFNIKISFFALLWAGIFWLIILKIQGKKSIKILFEAPYGVLLFSFGLYMVVFALHKIGVSEILVKSYAFLMQDKSGIFGVALISAFGSSVFNNLPMVLIGDLALKEYFENFSFDSLMIYAHLLGVNIGPKLTPIGSLATLLWLGVLARKGINISFWQYCKFGFLITLPVLVFSLFALIV” as the sequence, how does the protein production read?
A: Its protein production is “failed”.

Q: For “MLAFNLLRSAHMLNPALQVLAKDGSIADNTYQPIAEDGVIPAGDVVMTTAQLDQLTAIQGKKALYITVNDSPETHQFPLDQLDAIFIEFAGFNDGRGYSFAALLRRQGYQGELRAVGDIFKDVLNYLKRSGFDTFVIKEGKDIQEAAAGLNDFRQPYQASTAVPQADYQTGA”, which protein production is on record?
A: Its protein production is “failed”.

Q: With “MLAGATLAIGVIAPQVLPATAHADEQTGESTVNLRILETSDIHVNLMNYDYYQTKTDNKVGLVQTATLVNKAREEAKNSVLFDDGDALQGTPLGDYVANKINDPKKPVDPSYTHPLYRLMNLMKYDVISLGNHEFNYGLDYLNKVISKTEFPVINSNVYKDDKDNNEENDQNYFKPYHVFEKEVEDESGQKQKVKIGVMGFVPPQVMNWDKANLEGKVKAKDIVETAKKMVPKMKAEGADVIVALAHSGVDKSGYNVGMENASYYLTEVPGVDAVLMGHSHTEVKDVFNGVPVVMPGVFGSNLGIIDMQLKKVNGKWEVQKEQSKPQLRPIADSKGNPLVQSDQHLVNEIKDDHQATIDYVNT” as the sequence, how does the protein production read?
A: The protein production was “failed”.

Q: With “MLAGHLFAGVGEDVRLFKGITMTYGHNIELGDNAVVHDGVHLDDRGELVVGARASVSNGAHLYTHDHDVVDQTDVTNYRTEIGADARVTQGALVRAGVRVGENALVGSRSVVQGDVPAHHIAVGSPAESVRVKPGWLEHHHHHH” as the sequence, how does the protein production read?
A: Its protein production is “failed”.

Q: With “MLAQIEQEHYSKLHEILRLCRANLKNYDESLIQRAFFMCYRAHEGEKRASGEPFFYHPVEVAKLLVTELPLDGVSVAAALLHDVIEDSGYTYEDISAELGAEVADIVEGLTKISEIMVNRETTEAEGFRKMLLSMVKDIRVILIKFCDRLHNMRTLDSLPEHRRLRMALETRDIYAPLAHRFGLGKMKVDLENLALKYIDPEMYDYLLKKVRLSRNERVAYLNKMIAPIKDDLEKQGFTVELQGRAKHLYSIYNKMRMKNKKFDDIHDLYGIRVIIDTEKISDCFAVYGYITQQFPPIPQHFKDYISIPKHNGYQSLHSAIIGPKGHVVELQIRTRRMHEFAELGVAAHWRYKEKISKDDAALDSFLKWARELIKDADSATAFMEGFKLNLYHDEIYVFTPKGDMKVLPAGATPIDFAYAIHSEIGNGCIGAKVNGKIVRLNTELRSGDRVEVITSKSQRPKADWLKIVVTHRAKLKIRAAINEERRQEIEKGRSIWEKMLSGSKKLFTENDAIRAIRQHGIKTPADLFNALAKQQISSEEVLERISHPHRPAETHESTVQARAPHKDFAEIAREVQERLGYQKDEVTIAGLNNISYSYAKCCNPVPGDDIIGFVTTGGTVKIHRKNCVNVTNENSVKSERIVSVAWNRKVDTDFLAGIRIVGEDKIGMTNQITGVISKFDTNIRTIVLNAKDGIFTCNLMIFVKNTDKLTTLMDKLRKVQGVFTVERLSN” as the sequence, how does the protein production read?
A: Its protein production is “failed”.

Q: For “MLAQQIVGIFLMTTGTLFVFVAGLGVLRLPDVYMRLHASTKAGTLGVALNAAGLVVFHPDLGIFTRAFALVLFLLLTAPVAAHMIGRASYFAREEMGVSIWDGTVVDRMLDHRGEALFSTGAPEDGADASGSPS”, which protein production is on record?
A: The protein production was “failed”.

Q: Which protein production does the source give for “MLARRIVAKHVTKTTALAMLGTTIVLVILQVLFTYLGELSNLKADYSAWQAFLYVLWGAPRYLYEILPISALIGAILGLGTLASNSELIVMRSVGISLWRIVGWVIRSALVLVLLSFALSEWVVPYTNERANSVKSHQSVAALGEVRGYWSREGQRFIYVDYANSQGQLKRIQVVDFDDNYRLKSVTNAEQGQFVKDGQWLLNHSQQMAIQGQGDAVLANAAKQPFSLALQPKYVHMVTIDPEDLSFSQLVSFMNYMREYSQVPKTYQLAFWKKVASPFALITLVLVACSFIFGPLRQQSMGFRLVIALFIGLGFYYLQDFLGYASLVYNPSPAWFVLGPIVLMFVAGSYLLYRAR” here?
A: The protein production was “failed”.

Q: For “MLASIISILRVFVLLFNTPLFIFAFLPVGFLGYFILQAYAKNPLFPKLWLVLASLFFYAFWNVKYLPLLVGSIVFNYFVALKIHQTQPNAYKRLWLILGLIANVSLLGFFKYTDFFLTNFNLIWKSHFETLHLILPLAISFFTLQQIAYLMDTYKQNQIMQPKMRERVSENAPILLNPPTSFFSLSHFLDYALFVSFFPQLIAGPIVHHSEMMPQFKDKNNQYLNYRNIALGLFIFSIGLFKKVVIADNTAHFADFGFDKATSLSFIQAWMTSLSYSFQLYFDFSGYCDMAIGIGLFFNIKLPINFNSPYKALNIQDFWRRWHITLSRFLKEYLYIPLGGNRVKELIVYRNLILVFLIGGFWHGAGWTFIIWGLLHGIALSVHRAYSHATRKFHFTMPKILAWLITFNFINLAWVFFRAKNLESALKVLKGMVGLNGVSLCHLSKEASEFLNRVNDNMIMHTIMYASPTFKMCVLMIIISFCLKNSSHLYQSNQMDWIKTTSACLLLSIGFLFIFASSQSVFLYFNF”, which protein production is on record?
A: The protein production was “failed”.

Q: Which protein production does the source give for “MLASVRVNQLQRLLLSARRLSSSPIIPPSRLLHQRLFSTSDTDASAASFSSSHPKIQTLEGKASNKSRSTSSTTSLNEDELAKFSAIADTWWHSEGPFKPLHQMNPTRLAFIRSTLCRHFSKDPSSAKPFEGLKFIDIGCGGGLLSEPLARMGATVTGVDAVDKNVKIARLHADMDPVTSTIEYLCTTAEKLADEGRKFDAVLSLEVIEHVANPAEFCKSLSALTIPNGATVLSTINRTMRAYASTIVGAEYILRWLPKGTHQWSSFVTPEEMSMILQRASVDVKEIAGFVYNPITGRWLLSDDISVNYIAYGTKRKDLGDI” here?
A: The protein production was “failed”.

Q: For “MLATPFWYNAALKVLKPVYRWRIKKRAENEMRYQQECRERFGPFQQPQNRHALWFHAVSVGETNAAQPLIEYYLKLGHPVLVTNTTKTGQARAKSLFLKSPYLELFQAVYLPVDQIFLLKQFFELYQPKLLALVETELWPNLIDQAQHYGVPTFLINARLSEKSAQGYARVSALSNAMLSRLTGLLAQDQSTQQRFIGLGLAREKAQVVGNIKFDIDVPLEHHHHHH”, which protein production is on record?
A: The protein production was “failed”.

Q: With “MLDFNIEGLIPKNMEKRGELVLNEYLKEIEDVFNHRKIPENGIDDEKIKLFLKFLSMMDTDKDPKSVRIGEREARTYSKIHEELSSGFCHGIGRSGNLVDPQPKASGASIMYALTNKILESFFKQLGLNVHAIATPISTGMSISLCLSAARKKYGSNVVIYPYASHKSPIKAVSFVGMNMRLVETVLDGDRVYVPVEDIENAIKKEIELGNRPCVLSTLTFFPPRNSDDIVEIAKICENYDIPHIINGAYAIQNNYYLEKLKKAFKYRVDAVVSSSDKNLLTPIGGGLVYSTDAEFIKEISLSYPGRASATPVVNTLVSLLSMGSKNYLELVKNQKNSKKLLDELLNDLSKKTGGKFLDVESPIASCISVNSDPVEIAAKLYNLRVTGPRGIKKTDHFGNCYLGTYTHDYIVMNAAIGVRTEDIVNSVSKLEKILL” as the sequence, how does the protein production read?
A: The protein production was “failed”.

Q: Which protein production does the source give for “MLDKVIYSLLRTQDPGLAQELYFRLQAKEQSFAEVAQKYSQGPESQTGGLVGPVEQSSLHPAMVQLLSSCQPGQISPPTRITEWYVIVRVEKFIPAQLEHHHHHH” here?
A: The protein production was “not failed”.
